Each block holds one molecule with its values, some of them ahead of it.
B1: laminin γ1 short arm fragment (γ1LN-LEa1-4) (domain or fragment, Mus musculus, UniProt P02468 34-492, looked up)
chain: AMDECADEGGRPQRCMPEFVNAAFNVTVVATNTCGTPPEEYCVQTGVTGVTKSCHLCDAGQQHLQHGAAFLTDYNNQADTTWWQSQTMLAGVQYPNSINLTLHLGKAFDITYVRLKFHTSRPESFAIYKRTREDGPWIPYQYYSGSCENTYSKANRGFIRTGGDEQQALCTDEFSDISPLTGGNVAFSTLEGRPSAYNFDNSPVLQEWVTATDIRVTLNRLNTFGDEVFNEPKVLKSYYYAISDFAVGGRCKCNGHASECVKNEFDKLMCNCKHNTYGVDCEKCLPFFNDRPWRRATAESASESLPCDCNGRSQECYFDPELYRSTGHGGHCTNCRDNTDGAKCERCRENFFRLGNTEACSPCHCSPVGSLSTQCDSYGRCSCKPGVMGDKCDRCQPGFHSLTEAGCRPCSCDLRGSTDECNVETGRCVCKDNVEGFNCERCKPGFFNLESSNPKGCTP
notes: also called Lmγ1; N-terminal laminin γ1 fragment; source: HEK293, stably transfected, purified (streptactin-sepharose, thrombin digestion, SEC); not shown: double Strep II, N-terminal, cleaved
B2: full-length Net4 (Net4-FL) (natural protein, Mus musculus, UniProt Q9JI33 20-628, looked up)
chain: LNGVAGANSRCEKACNPRMGNLALGRKLRADTMCGQNATELFCFYSENADLTCRQPKCDKCNAAHSHLAHPPSAMADSSFRFPRTWWQSAEDVHREKIQLDLEAEFYFTHLIMVFKSPRPAAMVLDRSQDFGKTWKPYKYFATNCSATFGLEDDVVKKGAICTSRYSNPFPCTGGEVIFRALSPPYDIENPYSAKVQEQLKITNLRVRLLKRQSCPCQINDLNAKPHHFMHYAVYDFIVKGSCFCNGHADQCLPVEGFRPIKAPGAFHVVHGRCMCKHNTAGSHCQHCAPLYNDRPWEAADGRTGAPNECRTCKCNGHADTCHFDVNVWEASGNRSGGVCNNCQHNTEGQHCQRCKPGFYRDLRRPFSAPDACKACSCHPVGSAILPFSSVTFCDPSNGDCPCKPGVAGPHCDRCMVGYWGFGDYGCRPCDCAGSCDPLTGDCISSNADVDWYHEVPAFHSMHNKSEPSWEWEDEQGFSALRHSGKCECKEQVLGNPKAFCGMKYSYVLKIKILSAHDKGSHAEVNVKIKKVLKSTKLKILRGKRTLYPESWTNRGCTCPILNPGLEYLVAGHEDVRTGKLIVNMKSFVQHWKPALGRRVMHILKRDCV
notes: also called netrin-4; wild-type Net4; source: HEK293, stably transfected, purified (streptactin-sepharose, thrombin digestion, SEC); not shown: double Strep II, N-terminal, cleaved

How the values were obtained:
[1] = target: laminin γ1 short arm fragment (γ1LN-LEa1-4) (Mus musculus) (UniProt P02468); assay: not stated; binding assay of Supplementary Fig. 6c; method not given
laminin γ1 = laminin γ1 (UniProt P02468); conditions: cited from earlier work
[2] = target: T1, N-terminal laminin fragment β1LN-LEa1-4 (Homo sapiens, UniProt P07942 31-509); assay: SEC; analytical size-exclusion chromatography of single proteins and of mixtures; conditions: both partners purified
T1 construct: also called laminin β1; Lmβ1; source: HEK293, stably transfected, purified (streptactin-sepharose, thrombin digestion, SEC); not shown: double Strep II, N-terminal, cleaved
T1 sequence (P07942 31-509): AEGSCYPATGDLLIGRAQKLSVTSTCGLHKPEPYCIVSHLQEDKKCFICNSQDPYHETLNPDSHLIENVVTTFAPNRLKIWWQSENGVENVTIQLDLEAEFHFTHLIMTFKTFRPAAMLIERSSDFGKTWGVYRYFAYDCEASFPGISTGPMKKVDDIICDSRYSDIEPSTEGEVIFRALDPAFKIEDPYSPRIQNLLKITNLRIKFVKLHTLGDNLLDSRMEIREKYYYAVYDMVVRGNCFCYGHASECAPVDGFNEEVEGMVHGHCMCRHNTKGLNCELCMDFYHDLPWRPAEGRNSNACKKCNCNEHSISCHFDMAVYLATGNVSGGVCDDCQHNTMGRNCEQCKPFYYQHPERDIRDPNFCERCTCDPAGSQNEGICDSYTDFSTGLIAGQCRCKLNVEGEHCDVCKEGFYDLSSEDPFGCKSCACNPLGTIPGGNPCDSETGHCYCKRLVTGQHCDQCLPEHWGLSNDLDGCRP

[3] = target: B2; assay: MST; 2 nM labelled γ1LN-LEa1-4; Net4 0.08-1,000 nM, Net4 mutants 0.45-4,000 nM; 50 mM Tris/HCl pH 7.4, 150 mM NaCl, 2 mM CaCl2, 3% BSA; NanoTemper Monolith NT.115; conditions: both partners purified
[4] = target: the molecule itself; assay: cross-linking; increasing crosslinker concentration; Supplementary Fig. 5a
[5] = target: B1; assay: as above; conditions: both partners purified
[6] = target: T2, laminin γ1 short arm fragment (γ1LN-LEa1-4) (Mus musculus, UniProt P02468 34-492); assay: MST
T2 chain: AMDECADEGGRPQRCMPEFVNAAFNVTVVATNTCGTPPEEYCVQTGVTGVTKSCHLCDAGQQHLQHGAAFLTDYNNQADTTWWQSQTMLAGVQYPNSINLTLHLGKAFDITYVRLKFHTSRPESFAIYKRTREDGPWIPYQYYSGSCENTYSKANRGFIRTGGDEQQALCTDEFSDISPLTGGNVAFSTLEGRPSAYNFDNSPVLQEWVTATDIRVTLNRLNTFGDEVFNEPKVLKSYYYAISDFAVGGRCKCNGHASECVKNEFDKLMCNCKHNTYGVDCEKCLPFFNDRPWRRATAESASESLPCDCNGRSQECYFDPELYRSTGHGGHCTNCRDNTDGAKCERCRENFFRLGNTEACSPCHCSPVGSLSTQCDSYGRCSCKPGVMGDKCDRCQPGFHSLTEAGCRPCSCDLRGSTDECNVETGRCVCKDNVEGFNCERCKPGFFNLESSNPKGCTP

[7] = target: B1; assay: not stated; binding assays of Supplementary Fig. 6a,b; methods not shown (the author contributions name SPR measurements); conditions: both partners purified
[8] = target: B1; assay: SEC; analytical size-exclusion chromatography of single proteins and of mixtures; conditions: both partners purified
[9] = target: B1; assay: rotary-shadowing electron microscopy; images of the Net4-ΔC-γ1LN-LEa1-4 complex; conditions: both partners purified
[10] = target: B1; assay: MST; 2 nM labelled γ1LN-LEa1-4; Net4 0.08-1,000 nM, Net4 mutants 0.45-4,000 nM; 50 mM Tris/HCl pH 7.4, 150 mM NaCl, 2 mM CaCl2, 3% BSA; NanoTemper Monolith NT.115; conditions: both partners purified

Kd [1]: 66 nM
Molecule: Net4-ΔC^E195A,R199A (from UniProt Q9JI33 20-462) (domain or fragment)

Molecule: laminin β1 (from UniProt P02469)
Kd (laminin γ1): 5000 nM

Molecule: B1
binding result [2]: binds | Kd [3]: ~2 nM

Molecule: B2
stoichiometry N [4]: 2 | stoichiometry N [5]: 1 | Kd [6]: 2.26 nM

Kd [7]: ~50 nM
B3: Net4-ΔC^ΔKAPGA (domain or fragment, Mus musculus, UniProt Q9JI33 20-462, looked up)
chain: LNGVAGANSRCEKACNPRMGNLALGRKLRADTMCGQNATELFCFYSENADLTCRQPKCDKCNAAHSHLAHPPSAMADSSFRFPRTWWQSAEDVHREKIQLDLEAEFYFTHLIMVFKSPRPAAMVLDRSQDFGKTWKPYKYFATNCSATFGLEDDVVKKGAICTSRYSNPFPCTGGEVIFRALSPPYDIENPYSAKVQEQLKITNLRVRLLKRQSCPCQINDLNAKPHHFMHYAVYDFIVKGSCFCNGHADQCLPVEGFRPIFHVVHGRCMCKHNTAGSHCQHCAPLYNDRPWEAADGRTGAPNECRTCKCNGHADTCHFDVNVWEASGNRSGGVCNNCQHNTEGQHCQRCKPGFYRDLRRPFSAPDACKACSCHPVGSAILPFSSVTFCDPSNGDCPCKPGVAGPHCDRCMVGYWGFGDYGCRPCDCAGSCDPLTGDC
notes: the limits of the deletion are printed for the combined mutant; probably made like its parent m1; also called Net4 mutant in which the specific loop b (KAPGA) within LE1 was deleted

binding result [8]: binds
B4: N-terminal laminin fragment α1LN-LEa1-4 (domain or fragment, Homo sapiens, UniProt P25391 18-453, looked up)
chain: RQRGLFPAILNLASNAHISTNATCGEKGPEMFCKLVEHVPGRPVRNPQCRICDGNSANPRERHPISHAIDGTNNWWQSPSIQNGREYHWVTITLDLRQVFQVAYVIIKAANAPRPGNWILERSLDGTTFSPWQYYAVSDSECLSRYNITPRRGPPTYRADDEVICTSYYSRLVPLEHGEIHTSLINGRPSADDLSPKLLEFTSARYIRLRLQRIRTLNADLMTLSHREPKELDPIVTRRYYYSIKDISVGGMCICYGHASSCPWDETTKKLQCQCEHNTCGESCNRCCPGYHQQPWRPGTVSSGNTCEACNCHNKAKDCYYDESVAKQKKSLNTAGQFRGGGVCINCLQNTMGINCETCIDGYYRPHKVSPYEDEPCRPCNCDPVGSLSSVCIKDDLHSDLHNGKQPGQCPCKEGYTGEKCDRCQLGYKDYPTCVS
notes: also called laminin α1; source: HEK293, stably transfected, purified (streptactin-sepharose, thrombin digestion, SEC); not shown: double Strep II, N-terminal, cleaved

stoichiometry N [9]: 1 | Kd [6]: 2.29 nM | Kd [10]: ~2 nM
B5: Net4 lacking the C-terminal domain (Net4-ΔC) (domain or fragment, Mus musculus, UniProt Q9JI33 20-462, looked up)
chain: LNGVAGANSRCEKACNPRMGNLALGRKLRADTMCGQNATELFCFYSENADLTCRQPKCDKCNAAHSHLAHPPSAMADSSFRFPRTWWQSAEDVHREKIQLDLEAEFYFTHLIMVFKSPRPAAMVLDRSQDFGKTWKPYKYFATNCSATFGLEDDVVKKGAICTSRYSNPFPCTGGEVIFRALSPPYDIENPYSAKVQEQLKITNLRVRLLKRQSCPCQINDLNAKPHHFMHYAVYDFIVKGSCFCNGHADQCLPVEGFRPIKAPGAFHVVHGRCMCKHNTAGSHCQHCAPLYNDRPWEAADGRTGAPNECRTCKCNGHADTCHFDVNVWEASGNRSGGVCNNCQHNTEGQHCQRCKPGFYRDLRRPFSAPDACKACSCHPVGSAILPFSSVTFCDPSNGDCPCKPGVAGPHCDRCMVGYWGFGDYGCRPCDCAGSCDPLTGDC
notes: lacks domain C); Two alternative constructs were cloned: one with an N-terminal His8 tag, one with an N-terminal double Strep II tag (not both on one chain); the tag was removed by thrombin; also called netrin-4; wild-type Net4; source: HEK293, stably transfected, purified (streptactin-sepharose or nickel TALON beads, thrombin digestion, SEC); not shown: double Strep II, N-terminal, cleaved; …

From paper PMC5141367, “Structural decoding of netrin-4 reveals a regulatory function towards mature basement membranes” (Nature Communications, 2016)
